This note sets out measurements from the supplement of paper PMC12764529.

Series [1] in a line: folding stability dG unfold from trypsin proteolysis; higher = more stable. Here is the method: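 Folding stability of de novo designed mini-proteins (<80 aa, no Cys; designed by TrROS, TrMRF, ProteinMPNN and the joint model) was measured by cDNA display proteolysis with trypsin and chymotrypsin. Each protease was used at 11 concentrations in a threefold dilution series plus a no-protease condition. K50 was inferred by Bayesian fitting of sequencing counts, and dG unfold was derived against a sequence-predicted unfolded-state K50 (Tsuboyama et al. method). Sequences shown include variable-length N-terminal GS-type padding (SAGGSAGG...) inside a display construct carrying a PA tag. Rows were kept only if the AF2 dimer inter-PAE was >15, to exclude likely homo-oligomers.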

Series [2] in a line: folding stability dG unfold (combined trypsin and chymotrypsin); higher = more stable. In short, it runs like this:
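Mini-proteins designed to be under 80 residues and free of cysteine were carried in a PA-tagged cDNA display construct and digested with trypsin and with chymotrypsin. Each protease was applied at 11 threefold-diluted concentrations, alongside a no-protease condition, before sequencing. K50 came from Bayesian fitting of the sequencing counts, and unfolding free energy was obtained by comparing it with a sequence-predicted unfolded-state K50 and a shared folded-state K50, for each protease separately or for both together. Designs were retained only if their AlphaFold2 dimer inter-PAE exceeded 15.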

± gives the half width of the 95% confidence interval. Some results are limits rather than exact numbers.

On to “SAGGSAGGSSMPVKVTRTPVPSSAPPSTEFLETVTYPDGTVTTYRFRRDDGSVTSVRVSTSPASAGGSAGGS [r12_1049_JUSTAS]”, for which the entries for the “folding stability dG unfold” value in series [1] and in series [2] were -0.535 ± 0.71 kcal/mol and below -1 kcal/mol, respectively.
“SAGGSAGGSSPPVVTVEKYSEEPSPGVLRAVIRHPDGKEIVVTFEDLSPEEAKARAEEVAKLGSAGGSAGGS [r20_181_JUSTAS]”: the “folding stability dG unfold” value was 0.00637 ± 0.068 kcal/mol in series [1] and below -1 kcal/mol in series [2].
Turning to “SAGGSAKLEINIIIPGMPPERAKRKARNIAAELRKQGLPKENIKDVDIKVIVMPWRRDPDNKWKPMSAGGSA [r15_684_TrROS]”, the “folding stability dG unfold” value in series [1] was 0.506 ± 0.079 kcal/mol; in series [2], -0.0462 ± 0.12 kcal/mol.
Regarding “SAGGSAMEVKIIPGSKEAIINDPENGKPIPATIIEIEPIEPDKNLFKAKVKIPSNGGWKEVLVDLGSAGGSA [r15_209_TrMRF]”, the “folding stability dG unfold” value in series [1] was -1.23 ± 0.39 kcal/mol; in series [2] it was below -1 kcal/mol.
For “SAGGSAMKTLTATFSDGRSVTVEPENRTVTVSTPESSISTIPVPPDVPEVTITTPSGVTITLTVDTSAGGSA [r2_385_JUSTAS]” the same measures were 0.287 ± 0.083 kcal/mol and -0.107 ± 0.12 kcal/mol.
For “SAGGSAMPPEWQREVVLTPVEIDIPEPPEVEVVEYDPSTGTITISVPKSPLTLTYDALTGTVHTIGSAGGSA [r15_452_JUSTAS]”, in that order: -0.488 ± 0.61 kcal/mol and -0.873 ± 0.47 kcal/mol.
On to “SAGGSAPVTPDELVERVMQYIQGQNGMPPGDTPEQMRDNGMPIKIPITVEDPDGEPIAEVEIEFPMSAGGSA [r15_391_TrROS]”, for which the “folding stability dG unfold” value is 0.637 ± 0.054 kcal/mol in series [1] and -0.0929 ± 0.24 kcal/mol in series [2].
As to “SAGGSASLDIVEELIEEEIKDSKGTKIKILKPIIYYPGKGLVLSNVTVYKPDGTKISTEKKIEPVGSAGGSA [r15_967_JUSTAS]”, the entries for the “folding stability dG unfold” value in series [1] and in series [2] were -0.635 ± 0.25 kcal/mol and below -1 kcal/mol, respectively.
For “SAGGSDLITTEETFVGPGGEITLRTTTVDPKTGKTTTTTTTIPVIKGPPSDPAKIEAELKKRGIPLSAGGSA [r2_304_JUSTAS]” the same measures were -0.186 ± 0.12 kcal/mol and -0.799 ± 0.29 kcal/mol.
With “SAGGSEKLLEEIKEKEFNIPPFIDPKTGKEYPGAKVKVKEAKKIKDTKKIKLIVETPEGKHEFILGSAGGSA [r2_314_TrMRF]”, the “folding stability dG unfold” value in series [1] is 0.324 ± 0.22 kcal/mol; in series [2], below -1 kcal/mol.
Take “SAGGSETITIEIEINGAKIKLTFTKNEDGTLTVTAEITLPNGKKLRVTMEFDKKTKEWKITSIEPVSAGGSA [r2_402_TrROS_Hall]”: the “folding stability dG unfold” value in series [1] was 4.37 ± 0.39 kcal/mol; in series [2], above 6 kcal/mol.
Turning to “SAGGSGLRVGDVVEAEGVVVPDPETRLRRAVFRFPDFVVVEVVEVPEDVAPDEEIPFPVRIDAIVPSAGGSA [r2_113_TrMRF]”, the “folding stability dG unfold” value in series [1] was -0.512 ± 0.19 kcal/mol; in series [2], -0.645 ± 0.17 kcal/mol.
For “SAGGSIIIRGPSPDQAEEAARAFAKNFREQFPENPNMEIPVKVEYEDPENGQRQEYEAEIKIPYPDSAGGSA [r2_393_TrROS]”, the figures for the “folding stability dG unfold” value in series [1] and in series [2] were 0.0648 ± 0.16 kcal/mol and below -1 kcal/mol, respectively.
For the sequence “SAGGSMVTETLSVEETVEPLPDGLVRVPVRTEIRVTRKDPTTGKWTTELRTEEVVLVVPASGLEAASAGGSA [r2_184_JUSTAS]”, the “folding stability dG unfold” value in series [1] worked out at 0.804 ± 0.02 kcal/mol; in series [2], 0.195 ± 0.053 kcal/mol.
Consider “SAGGSPIYVRIEWEPPGNGKEREKEIPIKNVDSPDQLVDEAKEEAMKDGGPIKDIEVYDPDDGRPFPLSAGG [r13_771_TrROS]”, for which the “folding stability dG unfold” value was 0.598 ± 0.11 kcal/mol in series [1] and -0.192 ± 0.53 kcal/mol in series [2].
For the sequence “SAGGSQEFKFEILVPFDSPEEAKEEAEEIAKILQDHGLDVKVKVERDPNGAVKVPPTIRVDPEDGRPLSAGG [r13_697_TrROS]”, the “folding stability dG unfold” value in series [1] was 0.397 ± 0.1 kcal/mol; in series [2], -0.236 ± 0.31 kcal/mol.
As for “SAGGSSIEEIKEALKKGYNIKITPTTGTSTLVPVEELIKDPNITPETSLSDLGIKEITLIPPKNGKLVSAGG [r13_587_JUSTAS]”, the “folding stability dG unfold” value in series [1] is 0.0152 ± 0.075 kcal/mol; in series [2], -0.257 ± 0.25 kcal/mol.
Turning to “SAGGSSIPRALLEAMPPDAELEFEDPSSNVRIKVTRLGPDRLEITTTVYPPGPDTPVSSETTTDPLASAGGS [r16_163_JUSTAS]”, the “folding stability dG unfold” value in series [1] was 0.371 ± 0.11 kcal/mol; in series [2] it was -0.124 ± 0.28 kcal/mol.
In the case of “SAGGSTTITVPEEELEKKTGIPLGTPPEEVARKLDPVAKVTVTAVSSEKGPNGEPKRTVTFEVTPPQLSAGG [r13_723_JUSTAS]”, the figures for the “folding stability dG unfold” value in series [1] and in series [2] were -0.236 ± 0.14 kcal/mol and below -1 kcal/mol, respectively.
Consider “SAGGWRMEIEFPGINPEELRKAIAEAPGNKDVDVDVERIPKDGSVKIEMHGNNPADRKRIQKAVKKAFSAGG [r13_580_TrROS]”, for which the “folding stability dG unfold” value in series [1] was -0.928 ± 0.47 kcal/mol; in series [2], below -1 kcal/mol.
For the sequence “SAGKNPGPVLILADGGEEGVKAVAYFPDGPLETEFPGSGDIAIVIPPGLTPSDVLKAAAVALKEAAESSAGG [r19_170_TrMRF]”, the “folding stability dG unfold” value in series [1] was 0.396 ± 0.037 kcal/mol; in series [2], -0.337 ± 0.24 kcal/mol.
Turning to “SAGLTAKITSVTEENGTLTVTVEVTAPDGSTFTFTATFRIEPAPAPPVKVTVETDADGNVTVTVETLDSAGG [r19_172_TrROS_Hall]”, the figures for the “folding stability dG unfold” value in series [1] and in series [2] were 5.13 ± 0.28 kcal/mol and above 6 kcal/mol, respectively.
On to “SAGMSLKLEVPIDGHMIEVTVHPSPPRATAKYPEFDATAEATISEPGLINLTITDPKTGKPYPLDVTLPSAG [r14_656_JUSTAS]”, for which the “folding stability dG unfold” value in series [1] was determined as 0.621 ± 0.023 kcal/mol; in series [2], 0.152 ± 0.1 kcal/mol.
Turning to “SAGMTITKTEEFPKGPGSVTRTTVTLPNGKVVVEETITLEDPSVTKTVTKTIEPADGTVLETTTTTVPASAG [r5_108_JUSTAS]”, the “folding stability dG unfold” value in series [1] was 0.302 ± 0.16 kcal/mol; in series [2], -0.418 ± 0.3 kcal/mol.
In the case of “SAGMTVEEVAAEIIASHPPSSTSVTLEVDVGPKPVRVTVEILPDPETGRPVPRVTVTDPNKNVTTEYVVSAG [r5_236_JUSTAS]”, the “folding stability dG unfold” value was -0.173 ± 0.052 kcal/mol in series [1] and -0.632 ± 0.39 kcal/mol in series [2].
As for “SAGMVKVSLEKNPNGTPVVTVDVNEEGGPPVTVTLPVDPNETLSKVSAVLKKEGYPLPAGKKISELLSSAGG [r19_263_JUSTAS]”, the “folding stability dG unfold” value in series [1] is -0.72 ± 0.25 kcal/mol; in series [2], below -1 kcal/mol.
As to “SAGMVTFIDTTPGKAVVAVEDPATGTSRTIELDLDSPDGRPASLEEIKKVVEELVKEERPDLTVDVKLASAG [r5_293_JUSTAS]”, the “folding stability dG unfold” value was -0.506 ± 0.15 kcal/mol in series [1] and below -1 kcal/mol in series [2].
Regarding “SAGPKNAKPIGTVRIRNPNGRKINIMQWPNPIMVHIKPPDGKKREVPIRGAPMEEILDELAEDGWEVEPSAG [r5_613_TrROS]”, the results for the “folding stability dG unfold” value in series [1] and in series [2] were -0.489 ± 0.63 kcal/mol and below -1 kcal/mol, respectively.
As to “SAGPKVVKIEFLEDNTAKITVEVGSKPVEVEVPVGSVFLIPGGEKIEVIEPGKAKVSPLPEVDVDPEKSAGG [r19_17_TrMRF]”, the “folding stability dG unfold” value in series [1] was -0.848 ± 0.33 kcal/mol; in series [2], below -1 kcal/mol.
In the case of “SAGPPNMEPVETHTFPFPGKKIKIKVYRNPDGHVKIKLEDPGKKIEQSAPVPPGEPVEIPIRLPNGKPISAG [r5_878_TrROS]”, the “folding stability dG unfold” value in series [1] was -0.904 ± 0.52 kcal/mol; in series [2], below -1 kcal/mol.
For the sequence “SAGSAKELAKEIADTIADEMQDRHPGFKPTEVEVKEIEVNPENGWVKINIEMRFPNGKPIWKPEITIPSAGG [r19_53_TrROS]”, the “folding stability dG unfold” value in series [1] was -0.0323 ± 0.058 kcal/mol; in series [2], -0.557 ± 0.25 kcal/mol.
Regarding “SAGSMTVSESTENGVRTTTVTLPSRPLTVTVTFPDGKVTATTTDPAAPEAATTTPLGTPAVETLIAELSSAG [r14_716_JUSTAS]”, the entries for the “folding stability dG unfold” value in series [1] and in series [2] were 0.083 ± 0.051 kcal/mol and -0.609 ± 0.3 kcal/mol, respectively.
